Assay results published in patent publication US20250361297A1, “ANTI- SIGLEC-15 BINDING MOLECULES AND METHODS OF USE” (ADAPTAM THERAPEUTICS, S.L., priority 2024, published 2025).

Biological target: human Siglec-15, full length, expressed on cells (human) (UniProt Q6ZMC9)
Experiment: flow cytometry, THP-1 cells overexpressing human Siglec-15, ADC titrated, anti-human IgG-PE, gMFI

Chain of human Siglec-15, full length, expressed on cells (human) (Q6ZMC9 20-328 limits assumed): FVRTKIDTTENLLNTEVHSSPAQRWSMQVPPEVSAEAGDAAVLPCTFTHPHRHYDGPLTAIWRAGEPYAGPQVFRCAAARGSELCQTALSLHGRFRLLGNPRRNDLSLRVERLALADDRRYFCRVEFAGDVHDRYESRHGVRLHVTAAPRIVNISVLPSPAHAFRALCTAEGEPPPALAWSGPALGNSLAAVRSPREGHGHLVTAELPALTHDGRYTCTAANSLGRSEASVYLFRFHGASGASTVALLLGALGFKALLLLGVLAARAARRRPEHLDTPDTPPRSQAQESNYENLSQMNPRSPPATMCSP

B1: ZLA-1243-E01-Exatecan (protein)
VH: QVQLVQSGGGLVQPGRSLRLSCAASGFTFDDYAMHWVRQAPGKGLEWVSGISWNSGSIGYADSVKGRFTISRDNAKNSLYLQMNSLRAEDTALYYCAKGLWPSYDLDAFDIWGQGTMVTVSS
VL: QSALTQPASVSGSPGQSITLSCTGTSSDVGAYNFVSWYQQHPGTAPKLMIYEVSNRPSGVSDRFSGSKSGNTASLTISGLQAEDEADYYCSSYTSTIPPFVFGTGTKVTVL
modifications: Antibody-drug conjugate: exatecan payload joined through an MC-GGFG linker. The attachment residues are not stated and the letters cannot carry the payload.
  EC50 (read off the curve): 3 nM
